What was measured:
[1] = test system: PEAK3 pY24 phosphorylation in MCF-10A cells; conditions: MCF-10A cells treated with inhibitor; cited from earlier work
[2] = biological target: T1, CrkII^FL dimer (Homo sapiens, UniProt P46108); test: SPR, CrkII FL dimer binding to immobilised PEAK proteins; conditions: interactor as analyte over biotinylated PEAK protein (biotin CAPture); Biacore 8K+, HBS-TP with 500 mM NaCl, 20 °C; steady-state fit; mean ± SD (N = 2)
T1 construct: full length CrkII (CrkII^FL; UniProt P46108-1, residues 1–330); 8-His tag with TEV protease cleavage site (N); made in house; host or cells: E. coli C41 (DE3)
Procedure: (§1) SPR binding studies of PEAK PRM peptides to CrkII^NSH3 were performed using a Biacore S200 Instrument (Cytiva). Purified CrkII^NSH3 was diluted to 5 µg ml^−1 in 10 mM sodium acetate pH 4.0 and amine coupled at 25 °C to a Series S CM5 sensor chip, in HBS-N running buffer (20 mM HEPES pH 7.4, 150 mM NaCl) to a final immobilization level of 1100–1400 response units (RU), followed by surface deactivation using 1 M ethanolamine. A blank activation/deactivation was used for the reference surface. Peptide binding studies were performed at 20 °C in HBS-TP running buffer (20 mM HEPES pH 7.4, 150 mM NaCl, 1 mM TCEP, 0.005% (v/v) Tween-P20). […] Peptide stocks were further diluted to in running buffer to 10 or 20 µM and prepared as a 11-point concentration series (2-fold serial dilution, […] for PEAK PRM peptides, or 20 µM–20 nM for PEAK tandem motif peptides). Samples were injected in a multi-cycle run (flow rate 30 µl min^−1, contact time of 60 s, dissociation 120 s) without regeneration. Sensorgrams were double referenced, and steady-state binding data fitted using a 1:1 binding model using Biacore S200 Evaluation Software (Cytiva, v. 1.1).
(§2) SPR binding studies of PEAK proteins to full length CrkII/Grb2 and sub-domains were performed using a Biacore 8K+ Instrument (Cytiva) and analyzed using Biacore Insight Evaluation Software (v. 3.0.12.15655). […]

[3] = biological target: T2, CrkII^NSH3 (Homo sapiens, UniProt P46108); test: SPR, CrkII NSH3 binding to immobilised PEAK proteins; conditions: read-out: CrkII NSH3 SPR KD; interactor as analyte over biotinylated PEAK protein captured with biotin CAPture kit; Biacore 8K+, HBS-TP, 20 °C; steady-state fit; mean ± SD (N = 2); read-out: CrkII-SH2 SPR KD
T2 construct: CrkII^NSH3; UniProt P46108-1, residues 134–191; 8-His tag with TEV protease cleavage site (N); made in house; host or cells: E. coli C41 (DE3)
Procedure: as §1
(§3) SPR binding studies of PEAK proteins to full length CrkII/Grb2 and sub-domains were performed using a Biacore 8K+ Instrument (Cytiva) and analyzed using Biacore Insight Evaluation Software (v. 3.0.12.15655). […] Binding studies and steady-state data analysis were performed as described for CrkII^NSH3 with the inclusion of an additional surface regeneration step (60 s injection of 1 M NaCl) between cycles.

[4] = biological target: 14-3-3ɣ; test: SPR, 14-3-3ɣ binding to immobilised PEAK proteins; design: species or system human; conditions: 14-3-3ɣ analyte 0.46–1000 nM, multi-cycle, over immobilised biotinylated PEAK protein; Biacore 8K+, 20 °C; KD only an estimate (bivalent analyte model); N = 3
Procedure: PEAK proteins and adapters proteins (full length or individual domains) were biotinylated using EZ-Link™ NHS-PEG4-Biotin (Thermo Fisher) at a 1:1 molar ratio (100 µM) for 1 h at room temperature, then excess biotin was removed by buffer exchange using a Zeba™ Spin Desalting Column (Thermo Fisher) into HBS-T buffer (20 mM HEPES pH 7.4, 150 mM NaCl, 1 mM TCEP).
SPR binding studies of PEAK proteins to full length CrkII/Grb2 and sub-domains were performed using a Biacore 8K+ Instrument (Cytiva) and analyzed using Biacore Insight Evaluation Software (v. 3.0.12.15655). […] Biotinylated PEAK proteins (with or without Src phosphorylation; 500 nM in HBS-TP) were immobilized using a biotin CAPture kit (Cytiva) in HBS-TP running buffer at 20 °C. Binding studies and steady-state data analysis were performed as described for CrkII^NSH3 with the inclusion of an additional surface regeneration step (60 s injection of 1 M NaCl) between cycles. For Grb2^FL, Grb2^SH2, CrkII^SH2, CrkII^FL monomer and CrkII^FL dimer, to reduce nonspecific interactions the HBS-TP running buffer was supplemented with additional NaCl to a final concentration of 500 mM.
Binding studies for 14-3-3ɣ were undertaken in the same way in multi cycle mode (8 point, 3-fold serial dilution series, 0.46–1000 nM, 60 s contact time, 300 s dissociation).

[5] = biological target: T3, CrkII^SH2 (Homo sapiens, UniProt P46108); test: SPR, CrkII SH2 binding to immobilised PEAK proteins; conditions: interactor as analyte over biotinylated PEAK protein (biotin CAPture); Biacore 8K+, HBS-TP with 500 mM NaCl, 20 °C; steady-state fit; mean ± S.E.M. (N = 3)
T3 construct: CrkII^SH2; UniProt P46108-1, residues 6–120; 8-His tag with TEV protease cleavage site (N); made in house; host or cells: E. coli C41 (DE3)
Procedure: as §1, §3

[6] = biological target: T4, CrkII^FL monomer (Homo sapiens, UniProt P46108); test: SPR, CrkII FL monomer binding to immobilised PEAK proteins; conditions: interactor as analyte over biotinylated PEAK protein (biotin CAPture); Biacore 8K+, HBS-TP with 500 mM NaCl, 20 °C; steady-state fit; mean ± SD (N = 2)
T4 construct: full length CrkII (CrkII^FL; UniProt P46108-1, residues 1–330); 8-His tag with TEV protease cleavage site (N); made in house; host or cells: E. coli C41 (DE3)
Procedure: as §1, §2

T2 sequence (P46108 134-191): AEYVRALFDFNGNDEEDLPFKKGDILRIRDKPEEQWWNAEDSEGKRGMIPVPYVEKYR
T1 sequence (P46108 whole entry, the tested form may be a part): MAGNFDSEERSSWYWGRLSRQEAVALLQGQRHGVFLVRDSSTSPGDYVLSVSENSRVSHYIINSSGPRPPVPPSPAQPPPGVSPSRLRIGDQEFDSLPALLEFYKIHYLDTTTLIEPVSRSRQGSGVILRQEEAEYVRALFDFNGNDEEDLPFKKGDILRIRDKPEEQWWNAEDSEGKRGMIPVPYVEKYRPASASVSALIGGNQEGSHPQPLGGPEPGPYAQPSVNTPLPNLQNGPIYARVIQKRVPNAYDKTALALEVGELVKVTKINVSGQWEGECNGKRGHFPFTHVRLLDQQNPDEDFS
T3 sequence (P46108 6-120): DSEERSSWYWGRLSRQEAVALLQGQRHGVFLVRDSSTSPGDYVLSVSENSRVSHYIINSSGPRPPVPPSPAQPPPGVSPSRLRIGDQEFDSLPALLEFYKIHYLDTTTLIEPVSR
T4 sequence (P46108 whole entry, the tested form may be a part): as the sequence (P46108 whole entry, the tested form may be a part) above

Q: For `COc1cc(-c2nn(CCN3CCC(N(C)C)CC3)c3ncnc(N)c23)ccc1NC(=O)OC(C)(C)C` [eCF506], which “phosphorylation of PEAK3 at the TYSNL (pY24) site” value [1] is on record?
A: blocked

Q: With “PEAK3-FL (+ Src phosphorylation): insect cell PEAK3 (1–473) phosphorylated with recombinant Src kinase” as the compound, how does the Kd [2] read?
A: 2180 nM

Q: What about the Kd [3] of the same compound?
A: 6840 nM

Q: What about the Kd [4] of the same compound?
A: < 1000 nM

Q: For “PEAK3-FL E.coli (+ Src phosphorylation): E. coli PEAK3 (1–473) phosphorylated with recombinant Src kinase”, which “SPR KD, CrkII-SH2” value [5] is on record?
A: No binding

Q: What about the Kd [6] of the same compound?
A: 2600 nM

Q: And the Kd [2]?
A: 2110 nM

Q: And the Kd [3]?
A: 13100 nM

Q: What about the “SPR KD, 14-3-3ɣ” value [4] of the same compound?
A: No binding

Q: With “PEAK3-FL: full length human PEAK3 (1–473) from insect cells, S69 phosphorylated, purified as 14-3-3 complex” as the compound, how does the “SPR KD, CrkII-SH2” value [5] read?
A: No binding

Q: And the Kd [3]?
A: 3870 nM

Q: And the Kd [4]?
A: < 1000 nM

Q: And the “SPR KD, 14-3-3ɣ” value [4]?
A: bound strongly

— article PMC10279719 (Nature Communications, 2023)
